Results from patent EP2918281A1 (Max-Planck-Gesellschaft zur Förderung der Wissenschaften …, dated 2015).

Biological target: HIV-1 protease (EC 3.4.23.16) (HIV-1)
Experiment: cell-based or functional assay

B1: inhibitor 04 (other, not shown: small tags and cut ends)
chain: KMEGKSMLKLSHVLAFLLLASLFQSLMARDLISDGIEVLQLPVENEGESVFCPGKLSWPELVGMPAGYAKAIIEKENSIVHDVRLLLPGMVKPANYVCGRVFLVVDLKLIVQIPPSMG
  IC50 (enzyme inhibition): 0.67 µM
